From article PMC6161111, “Design, Synthesis, In Vitro, and Initial In Vivo Evaluation of Heterobivalent Peptidic Ligands Targeting Both NPY(Y1)- and GRP-Receptors—An Improvement for Breast Cancer Imaging?” (Pharmaceuticals, 2018)
*1 amine or outer side, *2 acyl side, *3 side chain or, on linkers, in order; H or OH if unused. Where a SMILES comes first, the peptide text is derived from it. Bridges are numbered along the chain shown (N, C = ends). Roman numbers before positions name the chains, in order. [ ]: non-standard residue; d: D form. The star is where a group is joined. X1 = NC(=O)[C@H](CCCCNC(=O)CCC(C(=O)O)N1CCN(CC(=O)O)CCN(CC(=O)O)CC1)NC(=O)CCOCCOCCOCCOCCNC(=O)CN(CCCNC(=O)CCOCCOCCOCCOCCNC(=O)c1ccc(C=NOCC(=O)NCCOCCOCCOCCOCCC(=O)[*:2])cc1)CCCNC(=O)CCOCCOCCOCCOCCNC(=O)c1ccc(C=NOCC(=O)[*:1])cc1; DOTA = O=C(O)CN1CCN(CC(=O)O)CCN(CC(=O)*)CCN(CC(=O)O)CC1; Nle = CCCC[C@H](N)C(=O)O

Tests used:
[1] = Determination of radiotracer lipophilicity (logD, phosphate buffer/1-octanol); type: physicochemical; conditions: phosphate buffer (0.05 M, pH 7.4) / 1-octanol, six independent experiments
Description: Determination of radiotracer lipophilicity. The heterobivalent ligands (22–26) as well as the monomeric reference compounds (27 and 28) were radiolabeled with ^68Ga as described before and 2 µL of the product solution (~65 pmol of the respective radioligand) were added to a mixture of phosphate buffer (0.05 M, pH 7.4, 800 µL) and 1-octanol (800 µL) and incubated for 5 min at ambient temperature under vigorous shaking. Both phases were separated by centrifugation and 100 µL of each phase were measured for radioactivity in a gamma-counter. […] (cpm = counts per minute), cpmw = activity in the aqueous phase [cpm]. These experiments were performed six times independently.

[2] = tested on: T-47D cells; assay: In vitro cell uptake (internalization) study in T-47D cells; type: cell-based, human; conditions: after 4 h, % of total added activity
Description: Cell culture. All cell lines were grown in suitable culture medium at 37 °C in a humidified CO2 (5%) atmosphere. The human breast cancer cell lines T-47D, MDA-MB-231 and MCF-7 were grown in Dulbecco’s Modified Eagle Medium (DMEM), supplemented with 10% (v/v) fetal calf serum (FCS) and 1% (v/v) L-Glutamine. For a high expression of the NPY(Y1) receptor on T-47D cells, the medium for this cell line was further supplemented with 0.15% (w/v) β-estradiol. The BT-474 and PC-3 cell lines were grown in RPMI-1640 medium, also supplemented with 10% (v/v) fetal calf serum (FCS) and 1% (v/v) L-Glutamine.
Internalization studies. Cells (T-47D, MDA-MB-231, MCF-7, BT-474 and PC-3, 1.5 × 10^6 cells per well) were seeded into 6-well plates and incubated overnight at 37 °C in a humidified CO2 (5%) atmosphere. The next day, the medium was removed and the cells were washed twice with the respective medium without supplements (ice-cold, 1 mL) and incubated with 3.7–4.0 kBq (0.37–4.0 pmol) of the respective ^68Ga-radiolabeled ligand [^68Ga]22−[^68Ga]26, [^68Ga]27 or [^68Ga]28 (in 1.5 mL medium, containing 0.5% (w/v) BSA) for defined time-points of 1, 2, 3 or 4 h at 37 °C in a humidified CO2 (5%) atmosphere. A 1000-fold excess of the respective peptide (3 or 4) was used for blocking to determine the non-specific cell uptake. At each time point, the medium was removed and the cells were washed twice with the respective medium without supplements (ice-cold, 1 mL). Cells were treated twice with 1 mL glycine buffer (ice-cold, 50 mM glycine, 100 mM NaCl, pH 2.8) for 5 min at room temperature, followed by 2 mL NaOH solution (1 M) for 10 min at 37 °C. The supernatants were collected and the radioactivity measured in a gamma counter. The internalized and surface bound activity was expressed as percentage of measured to total added activity. Each data point was generated thrice in triplicates.

[3] = Ex vivo biodistribution in T-47D tumor-bearing mice; conditions: female, Fox Chase SCID (CB17/Icr-Prkdc^scid/IcrIcoCrl), mouse, in vivo, iv, total radioactivity
Description: (§1) In vivo experiments. All animal experiments were performed in compliance with the German animal protection laws and protocols of the local committee (Regierungspräsidium Karlsruhe, approval number: 35-9185.81/G-206/15). 20, six week old female immunodeficient Fox Chase SCID (CB17/Icr-Prkdc^scid/IcrIcoCrl) mice with an average weight of 20 g were subcutaneously implanted with 17β-estradiol pellets (0.36 mg/60 days). 4 days later, the tumors were induced by subcutaneous inoculation of 5 × 10^6 T-47D cells into the left flank of the […]. After induction, the tumors were allowed to grow for 8–10 weeks and reached a diameter of about 0.5 cm. For imaging, the animals were anaesthetized with isoflurane and injected with 5.5–8.0 MBq of the respective radioligand ([^68Ga]24, [^68Ga]24a or [^68Ga]24b) into the lateral tail vein. Dynamic PET images were acquired over 90 min and CT images were obtained within further 30 min. After the end of the diagnostic scan, the animals were sacrificed, the organs were collected and measured in a gamma-counter.

[4] = tested on: T-47D tumor-bearing mice; assay: as above; conditions: mouse, in vivo
Description: as §1

CCCC[C@H](NC(=O)[C@H](CCCNC(=N)N)NC(=O)[C@H](Cc1c[nH]c2ccccc12)NC(=O)[C@H](CCCCNC(=O)CON=Cc1ccc(C(=O)NCCCN(CCCNC(=O)c2ccc(C=NOCC(=O)NCCOCCOCCOCCOCCC(=O)N[C@@H](CCC(N)=O)C(=O)N[C@@H](Cc3c[nH]c4ccccc34)C(=O)N[C@@H](C)C(=O)N[C@H](C(=O)NCC(=O)N[C@@H](Cc3c[nH]cn3)C(=O)N[C@@H](CC(C)C)C(=O)N[C@@H](CCSC)C(N)=O)C(C)C)cc2)CC(=O)NCCOCCOCCOCCOCCC(=O)N[C@@H](CCCCNC(=O)CCC(C(=O)O)N2CCN(CC(=O)O)CCN(CC(=O)O)CC2)C(N)=O)cc1)NC(=O)[C@@H]1CCCN1C(=O)[C@H](CC(N)=O)NC(=O)[C@@H](N)[C@@H](C)CC)C(=O)N[C@@H](CCCNC(=N)N)C(=O)N[C@@H](Cc1ccc(O)cc1)C(N)=O (some centres unmarked) [[^68Ga]22, metal not drawn]
logD [1]: -1.57 ± 0.111 | specific cell uptake [2]: 47.8 ± 6.5%

CCCC[C@H](NC(=O)[C@H](CCCNC(=N)N)NC(=O)[C@H](Cc1c[nH]c2ccccc12)NC(=O)[C@H](CCCCNC(=O)CON=Cc1ccc(C(=O)NCCOCCOCC(=O)NCCCN(CCCNC(=O)COCCOCCNC(=O)c2ccc(C=NOCC(=O)NCCOCCOCCOCCOCCC(=O)N[C@@H](CCC(N)=O)C(=O)N[C@@H](Cc3c[nH]c4ccccc34)C(=O)N[C@@H](C)C(=O)N[C@H](C(=O)NCC(=O)N[C@@H](Cc3c[nH]cn3)C(=O)N[C@@H](CC(C)C)C(=O)N[C@@H](CCSC)C(N)=O)C(C)C)cc2)CC(=O)NCCOCCOCCOCCOCCC(=O)N[C@@H](CCCCNC(=O)CCC(C(=O)O)N2CCN(CC(=O)O)CCN(CC(=O)O)CC2)C(N)=O)cc1)NC(=O)[C@@H]1CCCN1C(=O)[C@H](CC(N)=O)NC(=O)[C@@H](N)[C@@H](C)CC)C(=O)N[C@@H](CCCNC(=N)N)C(=O)N[C@@H](Cc1ccc(O)cc1)C(N)=O (some centres unmarked) [[^68Ga]23, metal not drawn]
logD [1]: -1.53 ± 0.109 | specific cell uptake [2]: 45.8 ± 2.9%

CCCC[C@H](NC(=O)[C@H](CCCNC(=N)N)NC(=O)[C@H](Cc1c[nH]c2ccccc12)NC(=O)[C@H](CCCCNC(=O)CON=Cc1ccc(C(=O)NCCOCCOCCOCCOCCC(=O)NCCCN(CCCNC(=O)CCOCCOCCOCCOCCNC(=O)c2ccc(C=NOCC(=O)NCCOCCOCCOCCOCCC(=O)NCC(=O)N[C@@H](CC(C)C)C(=O)N[C@@H](Cc3c[nH]cn3)C(=O)N[C@H](C(=O)N[C@@H](CCSC)C(=O)N[C@@H](Cc3c[nH]c4ccccc34)C(=O)N[C@@H](CCC(N)=O)C(=O)N[C@@H](C)C(N)=O)C(C)C)cc2)CC(=O)NCCOCCOCCOCCOCCC(=O)N[C@@H](CCCCNC(=O)CCC(C(=O)O)N2CCN(CC(=O)O)CCN(CC(=O)O)CC2)C(N)=O)cc1)NC(=O)[C@@H]1CCCN1C(=O)[C@H](CC(N)=O)NC(=O)[C@@H](N)[C@@H](C)CC)C(=O)N[C@@H](CCCNC(=N)N)C(=O)N[C@@H](Cc1ccc(O)cc1)C(N)=O (some centres unmarked) [[^68Ga]24a, metal not drawn] (I: H-INPKWR[Nle]RY-NH2 / II: GLHVMWQA-NH2; linker I:4-II:N via X1)
tissue to tissue ratio at 130 min ([3]; tumor-to-blood ratio (T / B)): 0.5 ± 0.47 | tissue to tissue ratio at 130 min ([3]; tumor-to-muscle ratio (T / M)): 1.07 ± 1.14 | adrenal glands uptake [4]: 0.74 ± 0.40 ID/g in % | blood uptake [4]: 0.39 ± 0.37 ID/g in % | bone uptake [4]: 0.13 ± 0.08 ID/g in % | brain uptake [4]: 0.03 ± 0.02 ID/g in % | heart uptake [4]: 0.18 ± 0.14 ID/g in % | kidneys uptake [4]: 29.72 ± 10.33 ID/g in % | large intestines uptake [4]: 0.24 ± 0.19 ID/g in % | liver uptake [4]: 5.54 ± 0.31 ID/g in % | lung uptake [4]: 0.28 ± 0.04 ID/g in % | muscle uptake [4]: 0.26 ± 0.40 ID/g in % | pancreas uptake [4]: 0.15 ± 0.08 ID/g in % | small intestines uptake [4]: 0.43 ± 0.37 ID/g in % | spleen uptake [4]: 0.49 ± 0.14 ID/g in % | stomach uptake [4]: 0.39 ± 0.41 ID/g in % | tail uptake [4]: 0.46 ± 0.41 ID/g in % | tumor uptake [4]: 0.21 ± 0.15 ID/g in %

CCCC[C@H](NC(=O)[C@H](CCCCNC(=O)CON=Cc1ccc(C(=O)NCCOCCOCCOCCOCCC(=O)NCCCN(CCCNC(=O)CCOCCOCCOCCOCCNC(=O)c2ccc(C=NOCC(=O)NCCOCCOCCOCCOCCC(=O)N[C@@H](CCC(N)=O)C(=O)N[C@@H](Cc3c[nH]c4ccccc34)C(=O)N[C@@H](C)C(=O)N[C@H](C(=O)NCC(=O)N[C@@H](Cc3c[nH]cn3)C(=O)N[C@@H](CC(C)C)C(=O)N[C@@H](CCSC)C(N)=O)C(C)C)cc2)CC(=O)NCCOCCOCCOCCOCCC(=O)N[C@@H](CCCCNC(=O)CCC(C(=O)O)N2CCN(CC(=O)O)CCN(CC(=O)O)CC2)C(N)=O)cc1)NC(=O)[C@H](CC(N)=O)NC(=O)[C@H](Cc1ccc(O)cc1)NC(=O)[C@@H]1CCCN1)C(=O)N[C@@H](CCCNC(=N)N)C(=O)N[C@@H](CCCNC(=N)N)C(=O)N[C@@H](Cc1c[nH]c2ccccc12)C(=O)N[C@H](C(N)=O)[C@@H](C)CC (some centres unmarked) [[^68Ga]24b, metal not drawn]
tissue to tissue ratio at 130 min ([3]; tumor-to-blood ratio (T / B)): 0.91 ± 0.24 | tissue to tissue ratio at 130 min ([3]; tumor-to-muscle ratio (T / M)): 3.83 ± 0.8 | adrenal glands uptake [4]: 2.91 ± 1.13 ID/g in % | blood uptake [4]: 2.02 ± 1.34 ID/g in % | bone uptake [4]: 0.43 ± 0.23 ID/g in % | brain uptake [4]: 0.07 ± 0.04 ID/g in % | heart uptake [4]: 0.85 ± 0.52 ID/g in % | kidneys uptake [4]: 43.84 ± 25.05 ID/g in % | large intestines uptake [4]: 1.71 ± 0.69 ID/g in % | liver uptake [4]: 16.75 ± 0.85 ID/g in % | lung uptake [4]: 0.88 ± 0.07 ID/g in % | muscle uptake [4]: 0.48 ± 0.40 ID/g in % | pancreas uptake [4]: 8.30 ± 5.33 ID/g in % | small intestines uptake [4]: 1.53 ± 0.51 ID/g in % | spleen uptake [4]: 2.12 ± 0.49 ID/g in % | stomach uptake [4]: 1.35 ± 0.43 ID/g in % | tail uptake [4]: 1.64 ± 0.94 ID/g in % | tumor uptake [4]: 1.84 ± 0.32 ID/g in %

CCCC[C@H](NC(=O)[C@H](CCCNC(=N)N)NC(=O)[C@H](Cc1c[nH]c2ccccc12)NC(=O)[C@H](CCCCNC(=O)CON=Cc1ccc(C(=O)NC2CCN(CC(=O)NCCCN(CCCNC(=O)CN3CCC(NC(=O)c4ccc(C=NOCC(=O)NCCOCCOCCOCCOCCC(=O)N[C@@H](CCC(N)=O)C(=O)N[C@@H](Cc5c[nH]c6ccccc56)C(=O)N[C@@H](C)C(=O)N[C@H](C(=O)NCC(=O)N[C@@H](Cc5c[nH]cn5)C(=O)N[C@@H](CC(C)C)C(=O)N[C@@H](CCSC)C(N)=O)C(C)C)cc4)CC3)CC(=O)NCCOCCOCCOCCOCCC(=O)N[C@@H](CCCCNC(=O)CCC(C(=O)O)N3CCN(CC(=O)O)CCN(CC(=O)O)CC3)C(N)=O)CC2)cc1)NC(=O)[C@@H]1CCCN1C(=O)[C@H](CC(N)=O)NC(=O)[C@@H](N)[C@@H](C)CC)C(=O)N[C@@H](CCCNC(=N)N)C(=O)N[C@@H](Cc1ccc(O)cc1)C(N)=O (some centres unmarked) [[^68Ga]25, metal not drawn]
logD [1]: -1.55 ± 0.114 | specific cell uptake [2]: 48.2 ± 2.8%

CSCC[C@H](NC(=O)[C@H](CC(C)C)NC(=O)[C@H](Cc1c[nH]cn1)NC(=O)CNC(=O)[C@@H](NC(=O)[C@H](C)NC(=O)[C@H](Cc1c[nH]c2ccccc12)NC(=O)[C@H](CCC(N)=O)NC(=O)CCOCCOCCOCCOCCNC(=O)CN1CCN(CC(=O)O)CCN(CC(=O)O)CCN(CC(=O)O)CC1)C(C)C)C(N)=O [[^68Ga]27, metal not drawn, reference compound]
logD [1]: -1.86 ± 0.054

CCCC[C@H](NC(=O)[C@H](CCCNC(=N)N)NC(=O)[C@H](Cc1c[nH]c2ccccc12)NC(=O)[C@H](CCCCNC(=O)CN1CCN(CC(=O)O)CCN(CC(=O)O)CCN(CC(=O)O)CC1)NC(=O)[C@@H]1CCCN1C(=O)[C@H](CC(N)=O)NC(=O)[C@@H](N)[C@@H](C)CC)C(=O)N[C@@H](CCCNC(=N)N)C(=O)N[C@@H](Cc1ccc(O)cc1)C(N)=O [[^68Ga]28, metal not drawn, reference compound] (H-INPK(DOTA)WR[Nle]RY-NH2)
logD [1]: -1.98 ± 0.162
